{"source": "patent US20210163606A1", "binders": {"B1": {"name": "aNRP2-1v3 (antibody, V domains shown)", "VH": "QVQLVQSGAEVKKPGASVKVSCKASGYTFTSYWMHWVRQAPGQGLEWMGAIYPGNSDTSYNQQFKGRVTMTRDTSTSTVYMELSSLRSEDTAVYYCARRGGGYFDYWGQGTLVTVSS", "VL": "DIQLTQSPSFLSASVGDRVTITCKASQNVGAAVAWYQQKPGKAPKLLIYSASNRYTGVPSRFSGSGSGTEFTLTISSLQPEDFATYYCQQYSSYPLLTFGGGTKVEIK"}, "B2": {"name": "aNRP2-14v9 (antibody, V domains shown)", "VH": "QLQLVESGGGVVQPGRSLRLSCTVSGFSLTSYGVHWVRQAPGKGLEWVGLIWSGGSTDYSPAFISRFTISEDNSKSTVYLQMNSLRAEDTAVYFCARNSYSSGYYAMDYWGQGTTVTVSS", "VL": "B1 VL with A31H, S93R, L96P, L97Y"}, "B3": {"name": "aNRP2-14v10 (antibody, V domains shown)", "VH": "B2 VH", "VL": "B1 VL with A31T, Y91R, S93R, L96P, L97Y"}, "B4": {"name": "aNRP2-2v4 (antibody, V domains shown)", "VH": "QVQLVQSGAEVKKPGASVKVSCKASGYTFTSYWMHWVRQAPGQGLEWMGVIHPNSASTFYNERFKTRATMTVDRSSSTAYMELSSLRSEDTAVYYCSRPGTVRRSDYWGQGTTVTVSS", "VL": "DVVMTQSPLSLPVTLGQPASISCRSSQNIVHSTGNTYLEWYQQRPGQSPRLLIYKVSNRFSGVPDRFSGSGSGTDFTLKISRVEAEDVGVYYCFQGSHVPWTFGGGTKVEIK"}, "B5": {"name": "aNRP2-10v5 (antibody, V domains shown)", "VH": "EVQLVQSGAEVKKPGATVKISCKVSGFNIKDYYIHWVQQAPGKGLEWMGRIDVEDDETKYAPKFQGRVTITADTSTDTAYMELSSLRSEDTAVYYCATPIYGSREAWFAYWGQGTLVTVSS", "VL": "DIQMTQSPSSLSASVGDRVTITCTASSSVSSSYLHWYQQKPGKAPKLLIYRTSNLASGVPSRFSGSGSGTDFTLTISSLQPEDFATYYCHQYYRSPPTFGGGTKVEIK"}, "B6": {"name": "aNRP2-10v10 (antibody, V domains shown)", "VH": "B5 VH with I34V, S103A", "VL": "B5 VL"}, "B7": {"name": "aNRP2-10v13 (antibody, V domains shown)", "VH": "B5 VH with I34V, E54H, S103A", "VL": "B5 VL"}, "B8": {"name": "aNRP2-11v7 (antibody, V domains shown)", "VH": "QVQLVQSGAEVKKPGASVKVSCKASGYTFTSFGISWVRQAPGQGLEWIGEIYPRSGNTYYNENFKGRATMTADKSTSTAYMELRSLRSDDTAVYYCARSSGYYGSTPFPYWGQGTLVTVSS", "VL": "DIQMTQSPSSLSASVGDRVTITCRASQDISNYLNWYQQKPGKAVKLLIYYTSRLHSGVPSRFSGSGSGTDYTFTISSLQPEDIATYYCQQGNTLPWTFGGGTKVEIK"}, "B9": {"name": "aNRP2-28v2/4 (antibody, V domains shown)", "VH": "QSVKESEGGLFKPTDTLTLTCTVSGFSLSTYSISWVRQAPGNGLEWIGIIGDAGGIIYATWAKSRSTITRSTALNTVTLKMTGLTAADTATYFCARDGTAFDIWGPGTLVTVSS", "VL": "AYDMTQTPASVEVVVGGTVTIKCQASQSIYSKLGWYQQKPGQPPKLLIYRASTLASGVSSRFKGSGSGTEYTLTISGVQCDDAATYYCQQDYSYINVDNIFGGGTEVVVK"}}, "note": "Changes are numbered by the printed parent chain."}
{"target": "Human NRP2 (aa23-855) with C-terminal Avi-, Myc- and His-tags (Human) (UniProt O60462)", "assay": "SPR (ProteOn XPR36), antibody captured on anti-human Fab-kappa, NRP2 as analyte, 1:1 Langmuir fit", "units": {"Kd": "nM"}}
{"binder": "B1", "Kd": 17}
{"binder": "B2", "Kd": 0.15}
{"binder": "B3", "Kd": 0.17}
{"binder": "B4", "Kd": 2.7}
{"binder": "B5", "Kd": 0.2}
{"binder": "B6", "Kd": 0.029}
{"binder": "B7", "Kd": 0.358}
{"binder": "B8", "Kd": 0.95}
{"target": "Human NRP2 (aa23-855) with C-terminal Avi-, Myc- and His-tags (Human) (UniProt O60462)", "assay": "SPR as described for Table E1 (human NRP2 antigen); the antigen for this mouse-IgG1 surrogate is not said separately", "units": {"Kd": "nM"}}
{"binder": "B9", "Kd": 0.0599}
